Columns and labels:
Assay in all cases: IEDB peptide-MHC binding, purified MHC/competitive/radioactivity; filed as Kd, often an IC50 or EC50 that approximates it; ≥ and ≤ were set here for values at or beyond the usual limits of such assays
[1] = biological target: HLA-A*02:02
[2] = biological target: HLA-A*02:03
[3] = biological target: HLA-A*02:06
[4] = biological target: HLA-A*03:01
[5] = biological target: HLA-A*11:01
[6] = biological target: HLA-A*31:01
[7] = biological target: HLA-A*33:01
[8] = biological target: HLA-A*68:01
[9] = source organism: Vaccinia virus WR
[10] = source organism: SARS coronavirus Tor2
[11] = source organism: Mammarenavirus juninense

Row | Sequence | Kd [1, 9] | Kd [2, 9] | Kd [3, 9] | further results
1 | VQSVLRDISI | 77.9 nM | 541 nM | 132 nM | –
2 | PTPKKMNIVT | ≥ 65800 nM | ≥ 55700 nM | ≥ 69800 nM | –
3 | YVVVHGYFT | – | – | – | Kd [1, 10]: 342 nM; Kd [2, 10]: 792 nM; Kd [3, 10]: 171 nM
4 | SLKRFTHTTA | 884 nM | 726 nM | 7320 nM | –
5 | FASADNHPKM | ≥ 70000 nM | ≥ 47400 nM | ≥ 69800 nM | –
6 | MICCDSRIVV | 665 nM | 392 nM | 51.9 nM | –
7 | RAAIDRQVSV | 626 nM | 40.8 nM | 212 nM | –
8 | LANERYRSA | ≥ 31300 nM | 554 nM | ≥ 77100 nM | –
9 | KTIISEEYL | 916 nM | 1220 nM | 150 nM | –
10 | NVTYNIKPV | ≥ 22800 nM | 153 nM | 855 nM | –
11 | HLMSDNPKA | 56.9 nM | 279 nM | 523 nM | –
12 | AQYKCVTIKY | – | – | – | Kd [4, 9]: 220 nM; Kd [5, 9]: 80.1 nM; Kd [6, 9]: 2140 nM; Kd [7, 9]: ≥ 21900 nM; Kd [8, 9]: 967 nM
13 | FIDVHIPKFK | – | – | – | Kd [4, 9]: 1060 nM; Kd [5, 9]: 179 nM; Kd [6, 9]: 2700 nM; Kd [7, 9]: 13100 nM; Kd [8, 9]: 108 nM
14 | YTKFWYVNH | – | – | – | Kd [4, 11]: 10300 nM; Kd [5, 11]: 17800 nM; Kd [6, 11]: 604 nM; Kd [7, 11]: 28.2 nM; Kd [8, 11]: 6510 nM
15 | DIKYDNKLL | 1420 nM | ≥ 49800 nM | ≥ 77100 nM | –
16 | ITLDTMDDMK | – | – | – | Kd [4, 9]: 3190 nM; Kd [5, 9]: 42.3 nM; Kd [6, 9]: 16700 nM; Kd [7, 9]: ≥ 70000 nM; Kd [8, 9]: 122 nM
17 | SLGKSPLPSL | 4.07 nM | 46.8 nM | 1430 nM | –
18 | SMFWDGMDY | – | – | – | Kd [4, 9]: 1.02 nM; Kd [5, 9]: 0.823 nM; Kd [6, 9]: 124 nM; Kd [7, 9]: 10400 nM; Kd [8, 9]: 11.9 nM
19 | IISSKQYPA | 164 nM | 612 nM | 1160 nM | –
20 | QLEQPYVFIK | – | – | – | Kd [4, 10]: 6680 nM; Kd [5, 10]: 2990 nM; Kd [6, 10]: 11300 nM; Kd [7, 10]: ≥ 70000 nM; Kd [8, 10]: 17200 nM
21 | IASKINNNR | – | – | – | Kd [4, 9]: 13200 nM; Kd [5, 9]: 329 nM; Kd [6, 9]: 28.8 nM; Kd [7, 9]: 76.6 nM; Kd [8, 9]: 1.86 nM
22 | GTSVIRSNI | 386 nM | 44.8 nM | 1610 nM | –

Source: the Immune Epitope Database (IEDB)
